The test concerns the target T1, Cy3-conjugated IκBα (UniProt P25963 1-317, limits assumed, Cy3 label (monofunctional reactive dye; site not stated)).
T1 construct: Used in solution at 0.1 ug/ml; also called Cy3-IκBα
T1 sequence (looked up): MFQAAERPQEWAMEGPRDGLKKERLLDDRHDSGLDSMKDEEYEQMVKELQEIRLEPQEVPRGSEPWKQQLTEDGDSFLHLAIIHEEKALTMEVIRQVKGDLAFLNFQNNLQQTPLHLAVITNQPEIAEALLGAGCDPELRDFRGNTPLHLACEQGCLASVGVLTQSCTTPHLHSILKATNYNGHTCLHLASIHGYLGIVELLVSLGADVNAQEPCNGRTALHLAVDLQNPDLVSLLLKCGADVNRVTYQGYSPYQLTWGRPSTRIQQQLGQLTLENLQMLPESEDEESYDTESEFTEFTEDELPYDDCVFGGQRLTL
Nature of the test: protein microarray on aldehyde glass slide, fluorescent probe in solution (FIG. 1B).

B1: Protein G (other, UniProt P19909 303-497, looked up)
chain: TYKLILNGKTLKGETTTEAVDAATAEKVFKQYANDNGVDGEWTYDDATKTFTVTEKPEVIDASELTPAVTTYKLVINGKTLKGETTTEAVDAATAEKVFKQYANDNGVDGEWTYDDATKTFTVTEKPEVIDASELTPAVTTYKLVINGKTLKGETTTKAVDAETAEKAFKQYANDNGVDGVWTYDDATKTFTVTE
notes: Spotted on aldehyde (SMA) glass slides at 100 ug/ml; The commercial product may be a truncated recombinant form
Regarding B1, the binding result was “no binding (tested: 0.1 µg/ml)”.

B2: GST-FRB (other)
chain: ELIRVAILWHEMWHEGLEEASRLYFGERNVKGMFEVLEPLHAMMERGPQTLKETSFNQAYGRDLMEAQEWCRKYMKSGNVKDLTQAWDLYYHVFRRISKQ
notes: domain: FRB domain of FRAP; Produced recombinantly in E. coli; The text calls the spotted protein both 'GST-FRB' and 'FRB'; also called FRB domain of FRAP; not shown: GST (glutathione S-transferase) fusion partner
For B2, the binding result is listed as “no binding (tested: 0.1 µg/ml)”.
